From publication PMC3463815 (Scientific Reports, 2012) come the findings set out here.

The test has as its target T1, VEGF_(34-121), 88-residue VEGF fragment displayed on S. carnosus (Homo sapiens).
T1 chain: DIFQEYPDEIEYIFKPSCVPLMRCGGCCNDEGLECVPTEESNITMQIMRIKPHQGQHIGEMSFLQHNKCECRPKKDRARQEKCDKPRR
Nature of the test: flow cytometry on cells. (In general: Flow cytometry measures light scatter and fluorescence of single cells or particles in a stream.)

B1: Avastin (antibody, V domains shown)
VH: EVQLVESGGGLVQPGGSLRLSCAASGYTFTNYGMNWVRQAPGKGLEWVGWINTYTGEPTYAADFKRRFTFSLDTSKSTAYLQMNSLRAEDTAVYYCAKYPHYYGSSHWYFDVWGQGTLVTVSS
VL: DIQMTQSPSSLSASVGDRVTITCSASQDISNYLNWYQQKPGKAPKVLIYFTSSLHSGVPSRFSGSGSGTDFTLTISSLQPEDFATYYCQQYSTVPWTFGQGTKVEIK
For the molecule B1, the binding result is “binds”.
